Among the data in the supplement of paper PMC12042874 are amyloid nucleation score values, retold here.

± gives the uncertainty stated by the source.

The data set in a line: amyloid nucleation score (Sup35N fusion, yeast selection) (log enrichment); library NNK3; higher = more nucleation; inactive = no reads after selection. In a few lines: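 Growth for 7 days at 30°C on medium lacking adenine and uracil followed a 24-hour induction with 100 μM copper sulfate of psi-negative yeast expressing peptides of 20 random codons fused to Sup35N. Input and output plasmid inserts were sequenced with Illumina, and sequences with under 100 input reads were excluded. Nucleation score is the DiMSum log enrichment of output over input reads, centred on the mode score of non-aggregating sequences.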
With DEAMEDFEWRRMGLV, the amyloid nucleation score entry was “inactive”.
As for TQCEVYCIYGVTHGLE, the entry is “inactive”; as for TGLIWLCESNRMLTVGSSLR, “inactive”.
As for CQSLLSGRFTGKSFEIT, the entry is “inactive”; as for FCLVFSELILFCVCSWVNST, “inactive”.
As for TFSISSGSASYCVSSVDSS, the entry is “inactive”; as for GQCVLCMVNVLYLWAKYTNR, “inactive”.
In the case of SSFFMRIVCMFYLIRKVMKC, the amyloid nucleation score entry was “inactive”.
The result for YLSNLYSPKRNWAAVL reads “inactive”; that for FWFLLWKRKDTLWAFR, “inactive”; that for GFWINVMISKTLRYGSKAWC, “inactive”.
As for TNRFSRWCIRRRMSAVRYIG, the entry is “inactive”; as for CLGVSNTYHWSYRRIFRYRF, “inactive”.
As for FTYAC, the entry is “inactive”; as for ERRIPRSNLKRRSKLSKFPA, “inactive”; as for DYESMTCNVSSDTVPFQQA, “inactive”.
Turning to HLGYPVVLVLLLPSDDSGHL, the amyloid nucleation score entry is “inactive”.
As for STMDRSVKVVGPSSRPEGSV, the entry is “inactive”.
As for GKNKQLS, the entry is “inactive”; as for FVHDFTFEGKSMVVRLNCSA, “inactive”; as for ADKRFI, “inactive”.
As for CRVFDYFSLRVYVTVRYSLF, the entry is “inactive”.
As to FLETVSFPMKVWSL, the amyloid nucleation score result was “inactive”.
As for ETDYVGRFALMKYDGLVYI, the entry is “inactive”; as for EHYVDCVGDVAVRDVLVGAS, “inactive”.
RSDNESGNV: the amyloid nucleation score result was “inactive”.
The result for SNDNGTHVSNYRALSSDREK reads “inactive”; that for ISMFCMIGFEVW, “inactive”; that for SCTLYAHALCPEQISPQFLH, “inactive”.
The result for PSQAFS reads “inactive”; that for KSHPINIRPFKYIPKMLASS, “inactive”.
The result for FFARMTALPLLQILYGSLRA reads “inactive”.
In the case of VASVIL, the amyloid nucleation score entry is “inactive”.
As for LHCFIAQFMQRYFREWSGNG, the entry is “inactive”; as for GSMLTDIVCFKYKVWDPIIL, “inactive”; as for RLGVVASPLHSTCIGNLLHG, “inactive”.
As for SPYVYRTWFRTLEYCTRDDM, the entry is “inactive”; as for WDKSLSVRTQVCHNRDS, “inactive”; as for LWFCLFPPWITSCPFRLCRA, “inactive”.
In the case of RQRMSGQNVTNNHACLFKAR, the amyloid nucleation score result is “inactive”.
As for NLKLAWNRLSRMHWFLMNRS, the entry is “inactive”.
With AYETFGNCRLVASVIIDGIS, the amyloid nucleation score result was “inactive”.
As for RVRNSCSVIGMWMLVYSRMI, the entry is “inactive”.
The result for NFVVKCICWAYFPHVDGFYF reads “inactive”; that for SCRCR, “inactive”.
The result for TLSWNISCVCSERPFFNMHV reads “inactive”; that for SLMSSATICTFMG, “inactive”; that for HPSSNLMHLM, “inactive”.
Take DIFGKRRLCI: the amyloid nucleation score entry was “inactive”.
With TQLHGDLYWLVRMRVWIVEI, the amyloid nucleation score result is “inactive”.
In the case of SQFQGAMMYFCEEMCICFFC, the amyloid nucleation score is 2.01 ± 0.097.
The result for NLYMDEHHFKAFNGCTNQLI reads “inactive”.
